Patent US20200055934A1
Read-outs that look alike come from different tables or passages of the source.

Assays:
Assay in all cases: cell-based or functional assay
[1] = target: Receptor for Advanced Glycation Endproducts (RAGE), human, full length (human) (UniProt Q15109)
[2] = target: Receptor for Advanced Glycation Endproducts (RAGE), human, full length (human) (UniProt Q15109); remark: listed apart in the source
[3] = target: Receptor for Advanced Glycation Endproducts (RAGE), human, full length (human) (UniProt Q15109); remark: listed apart in the source

Chain of UniProt Q15109 (Q15109 23-404 limits assumed): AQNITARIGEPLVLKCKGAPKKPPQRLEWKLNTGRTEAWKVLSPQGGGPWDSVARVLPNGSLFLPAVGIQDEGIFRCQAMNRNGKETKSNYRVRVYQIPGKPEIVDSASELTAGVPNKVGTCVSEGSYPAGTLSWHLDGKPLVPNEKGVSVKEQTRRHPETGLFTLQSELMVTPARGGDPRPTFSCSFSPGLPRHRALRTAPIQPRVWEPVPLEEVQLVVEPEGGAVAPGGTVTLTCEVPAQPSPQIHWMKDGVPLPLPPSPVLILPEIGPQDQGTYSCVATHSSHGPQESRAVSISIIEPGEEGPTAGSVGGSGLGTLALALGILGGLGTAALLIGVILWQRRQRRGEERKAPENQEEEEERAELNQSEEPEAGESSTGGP

“SNIPER-MMAF (MAB11451 conjugated with mcMMAF) (antibody)” showed an IC50, cell viability, HEC1A endometrial cancer cells, 24 h [1] of 24.1 mg/L, an IC50, cell viability, HEC1A endometrial cancer cells, 48 h [1] of 0.81 mg/L and an IC50, cell viability, HEC1A endometrial cancer cells, 96 h [1] of 0.74 mg/L. The IC50, cell viability, HEC1B endometrial cancer cells, 48 h [1] was 1.96 mg/L, the IC50, cell viability, HEC1B endometrial cancer cells, 96 h [1] was 1.27 mg/L and the IC50, cell viability, HEC50 endometrial cancer cells, 24 h [1] was 17.8 mg/L. For the same substance, the IC50, cell viability, HEC50 endometrial cancer cells, 48 h [1] was 0.86 mg/L, the IC50, cell viability, HEC50 endometrial cancer cells, 96 h [1] was 0.94 mg/L and the IC50, cell viability, Ishikawa endometrial cancer cells, 24 h [1] was 16.7 mg/L. For the same substance, the IC50, cell viability, Ishikawa endometrial cancer cells, 48 h [1] was 6.48 mg/L, the IC50, cell viability, Ishikawa endometrial cancer cells, 96 h [1] was 2.42 mg/L and the IC50, cell viability, TOV112D ovarian cancer cells, 48 h [1] was 2.51 mg/L. For the same substance, the IC50, cell viability, TOV112D ovarian cancer cells, 96 h [1] was 0.59 mg/L, the IC50, cell viability, healthy endometrial cells, 48 h [1] was 7.25 mg/L and the IC50, cell viability, healthy endometrial cells, 96 h [1] was 4.17 mg/L. It also gave an IC50, cell viability, healthy ovarian cells, 48 h [1] of 14.4 mg/L, an IC50, cell viability, healthy ovarian cells, 96 h [1] of 4.87 mg/L and an IC50, cell viability, Ishikawa endometrial cancer cells, 24 h [2] of 16.7 mg/L. The IC50, cell viability, TOV112D ovarian cancer cells, 24 h [3] was 2.5 mg/L.
“SNIPER-MMAE (MAB11451 conjugated with vcMMAE) (antibody)” gave an IC50, cell viability, HEC1A endometrial cancer cells, 24 h [1] of 10.3 mg/L, an IC50, cell viability, HEC1A endometrial cancer cells, 48 h [1] of 4.69 mg/L and an IC50, cell viability, HEC1A endometrial cancer cells, 96 h [1] of 1.02 mg/L. The IC50, cell viability, HEC1B endometrial cancer cells, 24 h [1] was 29 mg/L, the IC50, cell viability, HEC1B endometrial cancer cells, 48 h [1] was 8.65 mg/L and the IC50, cell viability, HEC1B endometrial cancer cells, 96 h [1] was 5.67 mg/L. The IC50, cell viability, HEC50 endometrial cancer cells, 48 h [1] was 7.64 mg/L, the IC50, cell viability, HEC50 endometrial cancer cells, 96 h [1] was 2.18 mg/L and the IC50, cell viability, Ishikawa endometrial cancer cells, 24 h [1] was 31 mg/L. The IC50, cell viability, Ishikawa endometrial cancer cells, 48 h [1] was 9.54 mg/L, the IC50, cell viability, Ishikawa endometrial cancer cells, 96 h [1] was 3.86 mg/L and the IC50, cell viability, TOV112D ovarian cancer cells, 24 h [1] was 22.6 mg/L. The IC50, cell viability, TOV112D ovarian cancer cells, 48 h [1] was 16.2 mg/L, the IC50, cell viability, TOV112D ovarian cancer cells, 96 h [1] was 0.54 mg/L and the IC50, cell viability, healthy endometrial cells, 48 h [1] was 10.7 mg/L. For the same substance, the IC50, cell viability, healthy endometrial cells, 96 h [1] was 15.2 mg/L, the IC50, cell viability, healthy ovarian cells, 96 h [1] was 41 mg/L and the IC50, cell viability, TOV112D ovarian cancer cells, 24 h [3] was 16.7 mg/L.
